Source: the DeepSol protein solubility set

Assay: soluble on expression in E. coli; label from the status in PepcDB or PDB records

Row | Sequence | soluble on expression in E. coli
1 | MGSDKIHHHHHHMSRTITIDPVTRIEGHATITIRLNDAGAVADARFHVTEFRGFERICIGRSIWEMPGITARICGICPVSHSISAARAGDAILGVEIPPAAVHLRRIANLASLIQSHALSFFHLSAADLLMGMDEEPSRRNLWGLVAHHPEVARGGIRLRQIGQKIVSDVAGESIHPSWAVPGGVREPLSPEGRDRIAALLPEGLAIVRGALGMLDGIYARHEAEITAYGDFPSLFAGLTASDGGLEHYDGSLRFTDSAGVHVDELSPEHYAQAVTERAEPWSYMTFPYYHPHGDREGGGMFRVGPLARLNICDRAGTPEADRELAAFRQVRGAGGMVTGSFHYHHARLIEILHALERIGMLLDEPDILDRHVRSEAGVNRPAGVGFCEAPRGTLFHDYEVDDDGIVSRVNLLIATGMNNLAINRTIRQVAAEFIRGGEFTEGILNRIEHGVRAYDPCLSCATHAYGRMPLRVMLLGPDGTVLDEAKRGR | not soluble
2 | MGSDKIHHHHHHMKLVTISGPPSSGKTAVLAGVIRAMMASGLKVGALKYDCLATNDDDVFRAIGVPVQTGLSGNLCPDHYFVSNIEECLDWGIREGFDFLLSESAGLCNRCAPHIKGVLAVCVIDNLMGATTPKKIGPMLKYADIVVITKGDIVSQAEREVFAFQVRRANPRAKIMHVNGITGQGAGELASQFLLAPETTCLDGSRLRFSMPAALCSYCLGETRIGMEFQLGNVKKIKMSEEPAR | not soluble
3 | GSMDALNSKEQQEFQKVVEQKQMKDFMRLYSNLVERCFTDCVNDFTTSKLTNKEQTCIMKCSEKFLKHSERVGQRFQEQNAALGQGLGR | soluble
4 | MGSDKIHHHHHHMKIVKNFRDINTLIPGWGDKMSEVSIFDIWKGTKFGESVLMEFDSLSFSPLGVYSLAYWARMKGFKVSVVDVLDTLKIYLSYAKMIGLGTSIANDIEVIKLGGRIDSGNVSTRIPITEEKVMEKELMKLYPHEDNEKTIVIVLGIEKFLALWCKLLPDILSFLNFMLSFVGEEWMKSFYFINVDLMKDFSFPALSMLEELSTTVVEISKRGPVLHYIVRKALNPEIDSLEGEIHIKELISEIENPIES | not soluble
5 | QHGSSTDPSFVALRNNSSLSCDGKSRLLEFGNDLGFSKEETDVLAKQKNWEQNYTNFKKQFEHKLLDPKSFSLTDVYNLFSGFQQSVADTVKLMNELQTQVNKANDIYPVESFQVPKVPQKLFGFVDQGFFPKLNPKGLNIADNVASLFEKYSLKQATLKDFDIVLEKKNDIVLEHKVRYNFALQ | not soluble
6 | MQKELFRQSPDSNKLILFFNGWAMTREAVSHLAIPPEYDLLHVWDYRTDTLHFDWSPYREICLSAWSMGVWAAERLSREGRLPSVVSAVAICGTGYPMDDTMGIPLDIFRGTLDGLTEENRLRFNRRMCGGKSLKHLLEALAARETDEIKAELGRVYEEEEKRLKSDDPHPVAPLSWDKALIGAKDRIIPAKNQQAFWQMRGCRNIETVAEGDHYLFNRFTEWEQLWS | not soluble
7 | MSLASYLDFEKNIQQIDEDIINAQIKGDTEAVSILKKNLEKEISKTYKNLSDFQRLQLARHPDRPYALDYIELILNDAHEIHGDRAFRDDPAIVCFMGYLGEKKIIVIGEQKGRGTKDKIARNFGMPHPEGYRKALRVAGLAEKFQIPILFLIDTPGAYPGIGAEERGQSEAIARNLYELSDLKIPTIAIVIGEGGSGGALAIGVADKLAMMKNSVFSVISPEGCAAILWNDPAKSEAATKAMKVTADDLKSQGLIDDVIDEPTNGAHRNKEAAAVAIADYVKKSLNELENIDVRELSANRMQKILKLGAYQEAEGHHHHHH | soluble
8 | MLQINRHILDNGLRLVHAQDTSTQMVALNILYNVGARDENPEHTGFAHLFEHLMFGGSVNIPDYDAPLQLAGGENNAWTNNDITNYYLTVPRQNVETGFWLESDRMLSLDFSERSLEVQRGVVMEEFKQRCLNQPYGDVGHLLRPLAYRVHPYQWPTIGKELSHIANATLEEVKDFFFRFYAPNNAVLAVTGNISFEEALHLTEKWFGPIPRREVPLRQLPPEPVQTEERRLVVERNVPLDSLFMAYHMCDRADSDYYAFDILSDILSNGRSSRLNQHLVQEKQLFSSIDAYISGTLDAGLFHISGKPAAGVSLEEAEAAVREELNELQSALIQEQELEKVKNKFESTQIFGNINYLNVATNLAWFELNGRAEDMEKEVERYRAVTADRLNAVAQTAFREENGVVLYYKSSRGEKDETYI | not soluble
9 | MGSDKIHHHHHHMSRTTVLRSAESDLTLHGRDAMGTLMRTGTLTNFLKVAQQLDFDPQPLLRKLGLTKEMLADPECLIPGSASVTLLKESARLTQCPTFGLRVAERWQLSDLGVISVLLTHQSTLRDAVGTLIQYRHLLNEFLVIRMEDVGRKVIVREELVADEAGTSIQSTELVLGSLSRLCSTLMGATWHPLSVHFTHDPPPDLRLHRRVFGGKLEFASSFNGMICRAADMDFPNPIADPVMARHARRLLEGLPGAKEPSIVLEVRKAIYLLLPLGRATIEQVAQGLGMNVRMLQRQLESAGMVFSDMVNGVRRDLVIHYMDNKSYTLGRIAQSLGYSAYGSFVRWFAAQFGMTPTRWQSLRQQKEDGRSPIQIHC | not soluble
10 | MQYKGQGFQPVAEKSAIAHAKKYREEYEKLGEQFFKDNFSLNVKATNVVGSGDGVEVYVHCDDHDIVFNASIPFDKEAIHEEGSMRSNDNGDTMSNMVGTVLSGFEYKAQKEKYDNLTKFFKDNEEKYQYTGFTKEAIHKTQNVGYQNEYYYLAGNVTNINNYRKYYEPLIKKDSKNFKEGMKKANEATNFKAKIEVVSTLFSTKSDFTKNNSKKDLLFLSDDLYHYKEKPENTNITLQLSEPKINSTRAFYDANNPLEYGVHKHELEHHHHHH | not soluble
11 | GMSISSKAKEILTQFTREVWSEGNIEASDKYIAPKYTVLHDPGDPWEGRELDVAGYKERVKTLRAAFPDQCFDIQGLFADGDAVVMTWLWTATHKEDIPGFPSTGKQIKMSGATVYYFDGNRLTGHWQITDRLGVYQQLRQAAAGA | soluble
12 | MAHHHHHHMKCEVDRPVTQNTERNGSEGNVAKNYMTHLYQFQNNEMKKIDASYFENKYLGLFFGASWCRYCVTFIQNINFFKKNFPFIEIIYIPFDKTYNDYVAFLKATDFYSLPFDNYLYICKKFNIKNLPSFMIIAPNNNVLVKDAVQLIKTDTYVNNFKSLVKNYTVHPSHFKIGNRFFDLFCA | soluble
13 | MNLKPHCLALALACAGLAGPLPALAATPAAAQSAPVTVLASLPVTHALAERLLRDTEVKLQRVAPANLPASRQASFFAGRGAGGLAKAAGQADAVIDLRSIWSDDPLYPLARRSNIRIVEIDAARPVDGALPGIALRPGSDLHAYPWLNPTNLGRMADVLASDLERLAPGAAATIQANLATLKKQLLEATASNETRLAKADNLSVISLSERLGYLLAGLNLDPLDVEIQADDGWTETNIQAFAEELKSEDIALVLHHRQPPKPLADAIAASGARLIVVDTEAADPVAGLESDMKAIVEGLLAGKG | not soluble
14 | MGHHHHHHSHATGNVCIEEIDVDGKFIRLKNTSEQDQPMGGWEMIRKIGDTSVSYKYTSRYVLKAGQTVTIWAANAGVTASPPTDLIWKNQNSWGTGEDVKVILKNSQGEEVAQRSTVFKT | not soluble
15 | GFFDLRNELPMNCRARRKVDLSDGALKDIARIDAIWSEQMAKFPDAFLFGEWSIADAMYAPVALRFETYGIELSQGAKAYQQKVLASHAVQKWLAEASQETDIVEEDEAGVEV | not soluble
16 | MVTVAVPKERAPGERRVALVPEVVARLVKGGARVRVERGAGEGAYHPDEAYQEAGAEVVERGELLKGAHLLFTVQPPPEDLIQALEPGAIVVGFVQPHKNLELVRALQAKKATVIAMELIPRITRAQSMDALSSQATVAGYLAAIHAARLSPRFFPMLTTAAGTIRPAKVMVMGVGVAGLMAIATAKRLGAQVFAYDVRKAALEQALSLGAKPIELPISAEGEGGYARELTEEEKRIQHEALRDHVAGMDVLITTAQVPGRRAPILLTEDMVERLKPGTVVVDLAAESGGNCVLTKPGEVVEVRGVRVYGPLNLPSELSVHASEMYAKNLYNLSSLLIEKGAFAPKWEDEIVRAALLMKEGEVLHGPTKALLGGA | soluble
17 | MFRWLFQSEGVTRSFDTPSETQSARDDRKTIGDYADNFLLFDLVMGEVEMAVIRFEIEKEEKEEAERKAERRPDYSWLISGNMNRARKQLSINEKNRIENACERLKPCEWSKTIDTWKIKTQNPSTRDQIIENFVIATHETIQSRKHEPTITEVLKNFATGRSGSLHTVSHGELPRVGSGRNISELSFIELQEMV | not soluble
18 | MEIMLTYKTFKILGREILIGVVWEEKIQGIAYSLDGLEFLKDQLSRVTSHLKSRGVKVNLLEEKSRYPDLVFDVLKGKIGNEKGFEELSLEGLTRFEIKVYSWLVKNVKRGEVITYGKVAKALKTSPIAVGGAMKRNPYPIIVPCHRVVGKNNPWLYTPKPSYKKFLLEVEGWIS | soluble
19 | MSLSKYKPTWMIDAIYKITPAQLKKLGIKAVLTDLDNTLIAWNNPDGTEELKTWLLEMKNAGITVLVVSNNKDSRIKRVVEKFDLDYVARALKPTARGFKLAEKKLGLKPSEMLMVGDQIMTDIRGANAAGIRNVLVQPIVDTDGWNTRINRFFERKIMKYLSKKHPEMTWRGGLEEGHHHHHH | soluble
20 | RHMELSPDGNLKTTITIGDRLTYDITCNGRQILTPSPISMTLDNGTVWGENAKLSGTSRKSVDEMIPSPFYRASELRNHYNGLTLRFKKDWNVEFRAYNDGIAYRFVNQGKKPFRVVTEVSDYCFPSDMTASVPYVKSGKDGDYNSQFFNSFENTYTTDKLSKLNKQRLMFLPLVVDAGDGVKVCITESDLENYPGLYLSASEGANRLSSMHAPYPKRTVQGGHNQLQMLVKEHEDYIAKVDKPRNFPWRIAVVTTTDKDLAATNLSYLLGAPSRMSDLSWIKPGKVAWDWWNDWNLDGVDFVTGVNNPTYKAYIDFASANGIEYVILDEGWAVNLQADLMQVVKEIDLKELVDYAASKNVGIILWAGYHAFERDMENVCRHYAEMGVKGFKVDFMDRDDQEMTAFNYRAAEMCAKYKLILDLHGTHKPAGLNRTYPNVLNFEGVNGLEQMKWSSPSVDQVKYDVMIPFIRQVSGPMDYTQGAMRNASKGNYYPCYSEPMSQGTRCRQLALYVVFESPFNMLCDTPSNYMREPESTAFIAEIPTVWDESIVLDGKMGEYIVTARRKGDVWYVGGITDWSARDIEVDCSFLGDKSYHATLFKDGVNAHRAGRDYKCESFPIKKDGKLKVHLAPGGGFALKIK | soluble
21 | LSNGQGSRVLHVVQTLYPFSSVTEEELNFEKGETMEVIEKPENDPEWWKCKNARGQVGLVPKNYVVVLSDGPALHPAH | soluble
22 | MVDNTSLSFEQIADFCGLHPLEVRGIADGEVARDIRGADPIGNGQLNREELDRAQANPDYRMKALVSRHAELLKPAKKAPRYTPVSRRQDRPDAIAWFLRHHPEVTDAQISKILGTTKATIEQVRARTHWNAANIKPVDPVTLGLVGQLELDALVKKAAEKKAKDDLKKGIVPEDPTLRPASEAGQFEPEVEEEEEDFRAPRGDLKAEDVFGKSTGYVDEEDEDLEHHHHHH | soluble
23 | MGSDKIHHHHHHMLSVAIPKAKPLLKQEKVATTAQKNQKEVIHYTAIGDSLTEGIGDLTNSGGFVPIVADDLKEHYNLNGVQTDNFGKNGDRSDQILKRIKEKPEIQKGLASADVITLTVGGNDLMKVISSNIFDLKVSSFNRPQKAYQRRVRRLLEEIREYNEKAPIYVLGIYNPFYLNFSEITEMQEIVDNWNQATEEMVQEQKRAYFIPINDLLYKGRGDEVGVTGGDSETTGSSASKEDLNNLLYEEDRFHPNNLGYQIMAGAVRDEMVKTEKEWITKSEGSE | not soluble
24 | MIGILIPVHNEEQLLDLCLETIKQAAAHPALKGEQVEVLVVLDSCTDRSAEIARAHGVMILEVTARNVGQARAEGAAFLLDRGARWLACTDGDSSVASDWLAEQLALDADAVCGTVTLGDWNNDISAPARAAYLKHYQQRDGHRHIHGANLGVSSIAYISAGGFPSLTCHEDVHLVRQLELIGARIAWSCRPRVTTSTRLNSKARGGFGDYLSSLNALEHHHHHH | not soluble
